Experimental data from paper PMC9478642 (2022).

B1: human T-plastin, full length, wild type [human] / F-actin (filaments of α-actin) [not stated] (parent complex)
chain 1: MDEMATTQISKDELDELKEAFAKVDLNSNGFICDYELHELFKEANMPLPGYKVREIIQKLMLDGDRNKDGKISFDEFVYIFQEVKSSDIAKTFRKAINRKEGICALGGTSELSSEGTQHSYSEEEKYAFVNWINKALENDPDCRHVIPMNPNTDDLFKAVGDGIVLCKMINLSVPDTIDERAINKKKLTPFIIQENLNLALNSASAIGCHVVNIGAEDLRAGKPHLVLGLLWQIIKIGLFADIELSRNEALAALLRDGETLEELMKLSPEELLLRWANFHLENSGWQKINNFSADIKDSKAYFHLLNQIAPKGQKEGEPRIDINMSGFNETDDLKRAESMLQQADKLGCRQFVTPADVVSGNPKLNLAFVANLFNKYPALTKPENQDIDWTLLEGETREERTFRNWMNSLGVNPHVNHLYADLQDALVILQLYERIKVPVDWSKVNKPPYPKLGANMKKLENCNYAVELGKHPAKFSLVGIGGQDLNDGNQTLTLALVWQLMRRYTLNVLEDLGDGQKANDDIIVNWVNRTLSEAGKSTSIQSFKDKTISSSLAVVDLIDAIQPGCINYDLVKSGNLTEDDKHNNAKYAVSMARRIGARVYALPEDLVEVKPKMVMTVFACLMGRGMKRV
chain 2: not shown

Variants of: B1
Experiment: sequential low-speed/high-speed F-actin cosedimentation assay; 5 μM actin, 2 μM plastin; read off a plot

response | Variant
~0.37 proportion of T-plastin in low-speed pellet | chain 1 W390A
~0.77 proportion of T-plastin in low-speed pellet | chain 1 R594A
